Here are results for one molecule from patent publication US5712366, “Fabrication of nanoscale materials using self-assembling proteins” (The United States of America as represented by the …, dated 1998).

Where a chain is given by its changes, count along the chain named.

Experiment [1] has as its target T1, polypeptide C2 (amino acid sequence of FIG. 4C).
T1 chain: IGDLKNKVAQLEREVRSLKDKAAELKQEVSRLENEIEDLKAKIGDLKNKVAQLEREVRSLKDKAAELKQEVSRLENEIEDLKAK
Briefly: surface plasmon resonance, one species immobilized onto a gold film. The protocol: Next, the interaction of polypeptide A2 with polypeptides B2 and C2, when both of the components were free in solution and when one species was immobilized onto a gold film, was examined. The immobilization tests were performed to measure the rates of association and dissociation between the complexes. Surface plasmon resonance was used to detect minute changes in refractive index that accompanied a specific binding event in the immediate vicinity of the metal surface. […] After an initial increase in refractive index due to solvent exchange, it is seen that the rate of association for the A2-B2 complex was more rapid and that the equilibrium response was achieved sooner. […] For the A2-C2 interaction, kass=3.46×10^3, kdiss=[…], and K_a=1.45×10^6.

Experiment [2] deals with T2, polypeptide B2 (amino acid sequence of FIG. 4B).
T2 chain: T1 chain with E12K, E14K, E54K, E56K
Briefly: turbidity at 400 nm on mixing at equal concentrations; gel analysis of the precipitate. The source says: First, the interaction between polypeptides A2 and B2 was investigated using turbidity measurements at 400 nm. […] When the polypeptides were mixed at equal concentrations, a rapid increase in turbidity was seen. This was attributed to specific heterodimer formation, which subsequently associated into higher order structures that precipitated in solution. […] No similar increase in the turbidity of the homodimer solutions was observed prior to mixing.

B1: polypeptide A2 (amino acid sequence of FIG. 4A) (designed binder)
chain: IGDLENEVAQLEREVRSLEDEAAELEQKVSRLKNEIEDLKAEIGDLENEVAQLEREVRSLEDEAAELEQKVSRLKNEIEDLKAE
Turning to B1, the binding result in experiment [1] and in experiment [2] was “binds” each time.
